pKd: −log10 of the molar value. Values joined by “and” are separate entries in the source; they are usually repeats but may differ in a detail not shown here. Equal entries are not always repeated.
What was measured:
[1] = target: nearly full-length recombinant FL-CSP (Plasmodium falciparum) (UniProt Q7K740); experiment: BLI; Octet RED96; biotinylated FL-CSP or biotinylated NANPx6 on streptavidin biosensors, Fab in solution, kinetics buffer; global fit to 1:1 Langmuir model
[2] = target: nearly full-length recombinant FL-CSP (Plasmodium falciparum) (UniProt Q7K740); experiment: ELISA
[3] = target: nearly full-length recombinant FL-CSP (Plasmodium falciparum) (UniProt Q7K740); experiment: BLI; Octet RED384; FL-CSP amine-coupled to AR2G biosensors, bivalent mAb in solution, 1x kinetics buffer, 25 °C; 1:1 Langmuir model; mean of quadruplicate measurements
[4] = target: nearly full-length recombinant P. falciparum circumsporozoite protein (FL-CSP) (Plasmodium falciparum) (UniProt Q7K740); experiment: BLI

Fab CIS43
pKd [1]: 8.70
koff [1]: 4.8e-05 s⁻¹
kon [1]: 28000 M⁻¹ s⁻¹

mAb CIS43 (antibody)
ng/ml mAb needed for OD = 1 [2]: < 6 ng/mL
pKd [3]: 9.34
koff [3]: 0.000692 s⁻¹
kon [3]: 1.5e+06 M⁻¹ s⁻¹

mAb CIS43 (intact human IgG1) (antibody)
kon [4]: 1.4e+06 1/(M s) (2×) and 1.7e+06 1/(M s) and 1.6e+06 1/(M s)

Source: paper PMC7970865
